Laboratory results: patent US6664048 (MAX PLANCK GESELLSCHAFT ZUR FURDERUNG DER WISSENSCHAFTEN E V, dated 2003)

Target: T1, LexA protein expressed from pBTM117c (UniProt P0A7C2 1-202)
T1 construct: range 1-220
T1 sequence (looked up): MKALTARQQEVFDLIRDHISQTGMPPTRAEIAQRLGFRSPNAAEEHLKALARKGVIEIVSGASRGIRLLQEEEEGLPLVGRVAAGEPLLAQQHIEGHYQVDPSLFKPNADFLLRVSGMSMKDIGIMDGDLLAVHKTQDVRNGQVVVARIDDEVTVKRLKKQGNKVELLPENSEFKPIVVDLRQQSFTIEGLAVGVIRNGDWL
Experiment: yeast two-hybrid in L40cc, growth on SD-leu-trp-his and β-galactosidase membrane assay
Description: Detection of Clones Expressing Known Interacting Proteins From False Positives Using the Improved Two-hybrid System Pairs of the yeast two-hybrid plasmids pBTM117cSIM1 & pGAD427-ARNT, pBTM117c & pGAD427 and pBTM117c-HIP1 & pGAD427 were transformed into the yeast strain L40cc, and Trp+Leu+ transformants that contained at least one of each of the two plasmids were selected on SD-leu-trp plates. Two transformants from each transformation were investigated for the presence of protein-protein interactions by testing the ability of the yeast cells to grow on SD-leu-trp, SD-leu-trp-his, SD-leu+CAN and SD-trp+CHX plates and by the β-galactosidase membrane assay (Breeden and Nasmyth, 1985). […] After selection of the yeast strains harboring the different combinations of the two-hybrid plasmids on SD-leu+CAN and SD-trp+CHX the resulting strains were also analyzed by the β-galactosidase assay. After incubating the membrane containing all three strains on SD-trp+CHX medium only progeny of the yeast strain that originally harbored both the plasmids pBTM117c-HIP1 & pGAD427 yet which had lost the pGAD427 plasmid through counterselection turned blue after incubating in X-Gal solution. […]

binding result: no binding
B1: GAL4ad protein expressed from pGAD427 (other, yeast, UniProt P04386 768-881, looked up)
chain: ANFNQSGNIADSSLSFTFTNSSNGPNLITTQTNSQALSQPIASSNVHDNFMNNEITASKIDDGNNSKPLSPGWTDQTAYNAFGITTGMFNTTTMDDVYNYLFDDEDTPPNPKKE
notes: range 768-881
